From publication PMC11197489, “RNA 5-methylcytosine regulates YBX2-dependent liquid-liquid phase separation”

Experiments:
Settings in all cases: protein: recombinant; tags: His6-SUMO removed by Ulp1
[1] = target: hYBX2 CSD W100F/Y173F (ITC) (human, UniProt Q9Y2T7 85-177, I92T;Q93K;W100F;Y173F); assay: ITC; ITC: 25 C, iTC200, buffer not stated (protein stock 10 mM Tris-HCl pH 8.0, 100 mM NaCl, 1 mM DTT); EMSA: 50 mM Tris-HCl pH 7.5, 100 mM NaCl, 0.4 mM EDTA, 0.1% NP-40, 1 mM DTT, 50% glycerol, BSA, on ice, 0.2% glutaraldehyde; pull-down: 100 mM NaCl, 10 mM Tris-HCl pH 7.6, 2 mM EDTA, 0.5% NP-40, 4 C
Sequence of hYBX2 CSD W100F/Y173F (ITC) (Q9Y2T7 85-177 I92T/Q93K/W100F/Y173F): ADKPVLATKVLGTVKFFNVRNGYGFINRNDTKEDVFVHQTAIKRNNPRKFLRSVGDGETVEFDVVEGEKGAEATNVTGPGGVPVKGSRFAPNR

hYBX2 CSD W100F (ITC) = hYBX2 CSD W100F (ITC) (human, UniProt Q9Y2T7 85-177, I92T;Q93K;W100F); assay: as above
Sequence of hYBX2 CSD W100F (ITC) (Q9Y2T7 85-177 I92T/Q93K/W100F): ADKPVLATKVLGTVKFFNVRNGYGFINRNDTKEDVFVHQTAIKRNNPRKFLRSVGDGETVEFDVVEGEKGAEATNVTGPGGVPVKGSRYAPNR

[2] = target: hYBX2 CSD I92T/Q93K (called wild-type in ITC) (human, UniProt Q9Y2T7 85-177, I92T;Q93K); assay: as above
Sequence of hYBX2 CSD I92T/Q93K (called wild-type in ITC) (Q9Y2T7 85-177 I92T/Q93K): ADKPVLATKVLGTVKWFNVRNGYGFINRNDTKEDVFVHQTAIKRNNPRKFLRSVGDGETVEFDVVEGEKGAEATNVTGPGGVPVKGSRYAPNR

[3] = target: hYBX2 CSD 85-177 (crystal) (human, UniProt Q9Y2T7 85-177, I92T;Q93K); assay: crystal structure; ITC: 25 C, iTC200, buffer not stated (protein stock 10 mM Tris-HCl pH 8.0, 100 mM NaCl, 1 mM DTT); EMSA: 50 mM Tris-HCl pH 7.5, 100 mM NaCl, 0.4 mM EDTA, 0.1% NP-40, 1 mM DTT, 50% glycerol, BSA, on ice, 0.2% glutaraldehyde; pull-down: 100 mM NaCl, 10 mM Tris-HCl pH 7.6, 2 mM EDTA, 0.5% NP-40, 4 C
Sequence of hYBX2 CSD 85-177 (crystal) (Q9Y2T7 85-177 I92T/Q93K): as above

[4] = target: hYBX2 CSD 85-165 (crystal) (human, UniProt Q9Y2T7 85-165, I92T;Q93K); assay: as above
Sequence of hYBX2 CSD 85-165 (crystal) (Q9Y2T7 85-165 I92T/Q93K): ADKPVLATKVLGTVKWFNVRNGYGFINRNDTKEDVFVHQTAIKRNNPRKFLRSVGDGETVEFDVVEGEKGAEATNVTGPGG

| Binder | Kd [1] [nM] | Kd (hYBX2 CSD W100F (ITC)) [nM] | Kd [2] [nM] | binding result [3] | binding result [4] |
| --- | --- | --- | --- | --- | --- |
| UCAUCUCU (ssRNA, m5C at position 5) [ITC m5C RNA UCAU(m5C)UCU] | 6330 ± 520 | 2340 ± 90 | 220 ± 20 | – | – |
| UCAUCUCU (ssRNA) [ITC unme-C RNA] | 7260 ± 240 | 2590 ± 120 | 710 ± 60 | – | – |
| UCAUCU (ssRNA, m5C at position 5) [UCAU(m5C)U] | – | – | – | binds | binds |
| UCAUCUU (ssRNA, m5C at position 5) [UCAU(m5C)UU] | – | – | – | binds | – |
| GUCUC (ssRNA, m5C at positions 3 and 5) [GU(m5C)U(m5C)] | – | – | – | binds | – |
